Results on nine molecules are retold here after US20200283508A1 (TEXAS A AND M UNIVERSITY SYSTEM, published 2020).

The target of test [1] is Coa-R (Coa 506-636) (Staphylococcus aureus strain Newman). The test can be described thus: ELISA, antigen coated 200 ng/well, scFv-Fc at 0.5 µg/ml. A general note: In an ELISA, binding on a coated surface is turned into a signal by an enzyme label.
In test [2] the target is T1, Efb-A30-67 (Staphylococcus aureus strain Newman, UniProt P08515 1-218 = GST; A6QG59 30-67). The test can be described thus: apparent Kd from half-maximal binding in ELISA (GraphPad Prism).
Test [3] addresses T2, Efb-N30-105 (Staphylococcus aureus strain Newman, UniProt A6QG59 30-105).
T2 sequence: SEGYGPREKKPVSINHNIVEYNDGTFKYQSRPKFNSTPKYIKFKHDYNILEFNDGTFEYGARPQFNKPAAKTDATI
Described as above.

Test [4] concerns the target T3, recombinant Efb-O (Efb 68-98) (Staphylococcus aureus strain Newman, UniProt P08515 1-218 = GST). Described as above.
The target of test [5] is T4, Coa-R0474-505 (recombinant protein) (Staphylococcus aureus strain Newman).
T4 chain: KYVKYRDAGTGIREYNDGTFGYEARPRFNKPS
The test is described as above.

The target of test [6] is T5, Coa-F (Coa 311-505) (Staphylococcus aureus strain Newman, UniProt P08515 1-218 = GST). Described as above.
The target of test [7] is T6, Coa-C (Coa 311-636) (Staphylococcus aureus strain Newman, UniProt P08515 1-218 = GST).
T6 construct: also called rCoa-C; Coa-C311-636
The description is as above.

In test [8] the target is T4, Coa-R0474-505 (recombinant protein).
The target in test [9] is T1, Efb-A30-67.
Test [10] has as its target T6, Coa-C (Coa 311-636).
Test [11] addresses T2, Efb-N30-105.
The target in test [12] is T3, recombinant Efb-O (Efb 68-98).
Test [13] concerns the target T5, Coa-F (Coa 311-505).

B1: FBE5-B9 (scFv, V domains shown)
VH: EVQLVESRGGVVQPGRSLRLSCAASGFTFSSYGMHWVRQAPGRGLEWVAVISYDGSNKYYADSVKGRFTISRDNSKNTLYLQMNGLRSDDTAVYYCARGGDDYGDYFDYWGQGTLVTVSS
VL: QSVLTQPPSVSAAPGQKVTISCSGSSSNIGNNYVSWYQQLPGTAPKLLIYDNNKRPSGIPDRFSGSKSGTSATLGITGLQTGDEADYYCGTWDSSLSAAVFGGGTKLTVL
In general, EC50 (read off the curve) refers to the concentration needed to bring the measured effect to its halfway point. For the molecule B1, the binding result in [1] is on record as “no binding (tested: 0.5 µg/ml)”. The Kd in test [2] amounted to 25.9 nM; in [3] it was 3.45 nM; in test [4] it was 8.27 nM; in test [5], 2.19 nM; in test [6], 1.12 nM; in [7], 1.74 nM. In test [8], the concentration giving a half-maximal response (EC50 (read off the curve)) is around 0.2 µg/mL.

B2: FBE5-F9 (scFv, V domains shown)
VH: QMQLVQSGGGVVQPGRSLRLSCAASGFTFSSYGMHWVRQAPGKGLEWVAVISYDGSNKYYADSVKGRFTISRDNSKNTLYLQMNSLRAEDTAVYYCAKEGDGDYGGVLDYWGQGTLVTVSS
VL: QSVLTQPPSVSAAPGQKVTISCSGSSSNIEKNYVSWYQQLPGTAPKLLIYDNNKRPSGIPDRFSGSKSGTSATLGITGLQTGDEADYYCGTWDSSLSAVVFGGGTKLTVL
On to B2, for which the binding result in [1] is “no binding (tested: 0.5 µg/ml)”. The Kd worked out at 21.5 nM in test [2]; 6.01 nM in [3]; 7.97 nM in test [4]; 3.16 nM in [5]; 1.63 nM in test [6]; 2.85 nM in [7].

B3: FBE5-C8 (scFv, V domains shown)
VH: QMQLVQSGGGVVQPGRSLRLSCAASGFIFSNYGMHWVRQAPGKGLEWVAVISYDGSNKYYADSVKGRFTISRDNSKNTLYLQMDSLRAEDTAVYYCAREGVGGDYGDLPTGPYYYYGMDVWGQGTTVTVSS
VL: QSVLTQPPSVSAAPGQKVTISCSGSSSNIGNNSVSWYQQLPGTAPKLLIYDNNKRPSGIPDRFSGSKSGTSATLGITGLQTGDEADYYCETWDSSLSAVVFGGGTKLTVL
Consider B3, for which, in test [1], the binding result is on record as “no binding (tested: 0.5 µg/ml)”. Also, the Kd in test [6] was determined as 7 nM; in test [7], 13.5 nM.

B4: FBE5-A5 (scFv, V domains shown)
VH: EVQLVQSGGGVVQPGRSLRLSCAASGFTFSSYGMHWVRQAPGKGLEWVAVISYDGSNKYYADSVKGRFTISRDNSKNTLYLQMNSLRAEDTAVYYCAKAGPDSYGYGMDVWGQGTTVTVSS
VL: not shown
As for B4, the 50% effective concentration (EC50 (read off the curve)) was around 0.4 µg/mL in test [9] and around 0.2 µg/mL in [8]. Further, in [1], the binding result is recorded as “no binding (tested: 0.5 µg/ml)”. The Kd in test [2] turned out to be 4.38 nM; in [3], 3.24 nM; in test [4], 4.27 nM; in [5], 1.86 nM; in test [6], 1.47 nM; in test [7], 5.34 nM.

B5: FBE5-A6 (scFv, V domains shown)
VH: QVQLVQSGGGVVQPGRSLRLSCAASGFTFSSYGMHWVRQAPGKGLEWVAVISYDGSNKYYADSVKGRFTISRDNSKNTLYLQMNSLRAEDTAVYYCAKAGDDDYGHYFDYWGQGTLVTVSS
VL: not shown
Turning to B5, the binding result in [1] is on record as “no binding (tested: 0.5 µg/ml)”. Further, the Kd in test [2] was found to be 8.54 nM; in test [3], 3.54 nM; in test [4] it was 13 nM; in test [5], 1.9 nM; in [6], 1.15 nM; in test [7], 1.24 nM. Moreover, the “EC50 (read off the curve)” value in test [8] was around 0.2 µg/mL.

B6: FBE5-A12 (scFv, V domains shown)
VH: QVQLVESGGGVVQPGRSLRLSCAASGFTFSSYGMHWVRQAPGKGLEWVAVISYDGSNKYYADSVKGRFTISRDNSKNTLYLQMNSLRGEDTAVYYCAREGGWEPNGLDYWGQGTLVTVSS
VL: QAVLTQPPSASGTPGQRVTISCSGSDFNVGTNYVNWYQQLPGSAPKLLIYRNNQRPSGVPDRFSGSKSGTSATLGITGLQTGDEADYYCGTWDSSLSAEVFGGGTKLTVL
Turning to B6, the binding result in test [1] is “no binding (tested: 0.5 µg/ml)”. For the same molecule, the Kd was determined as 2.44 nM in test [5], 0.647 nM in [6] and 0.555 nM in test [7]. Further, the “EC50 (read off the curve)” value in [10] is around 0.06 µg/mL.

B7: FBE5-D10 (scFv, V domains shown)
VH: QVQLVQSGGGVVQPGRSLRLSCAASGFTFSNYGMHWVRQAPGKGLEWVAVISYDGSNKYYADSVKGRFTISRDNSKNTLYLQMNSLRAEDTAVYYCAKDSREQWLAHWGQGTLVTVSS
VL: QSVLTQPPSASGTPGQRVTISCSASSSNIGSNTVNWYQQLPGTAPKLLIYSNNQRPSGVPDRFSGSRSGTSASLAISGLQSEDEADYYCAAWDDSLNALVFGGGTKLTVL
In the case of B7, the “EC50 (read off the curve)” value in test [9] was around 0.1 µg/mL; in test [11], around 0.2 µg/mL; in test [12], around 0.3 µg/mL; in test [8] it was around 0.08 µg/mL; in test [13], around 0.09 µg/mL; in test [10] it was around 0.1 µg/mL. Also, the binding result in test [1] was “no binding (tested: 0.5 µg/ml)”. In addition, the Kd in test [2] was 1.57 nM; in test [3] it was 1.97 nM; in test [4] it was 3.65 nM; in test [5], 0.856 nM; in [6] it was 0.95 nM; in test [7], 1.4 nM.

B8: FBE5-D9 (scFv, V domains shown)
VH: QVQLVESGGGVVQPGRSLRLSCAASGFTFSSYGMHWVRQAPGKGLEWVAVISYDGSNKYYADSVKGRFTISRDNSKNTLYLQMNSLRAEDTAVYYCAKNQEWLVPGYWGQGTLVTVSS
VL: QSALTQPASVSGSPGQSITISCTGTSSDVGGYNYVSWYQQHPGKAPKLMIYDVSNRPSGVSNRFSGSKSGNTASLTISGLQAEDEADYYCSSYTSSSTLVFGGGTKLTVL
As to B8, the “EC50 (read off the curve)” value was around 0.1 µg/mL in test [11]; around 0.3 µg/mL in [12]; around 0.1 µg/mL in test [8]; around 0.06 µg/mL in test [13]; around 0.08 µg/mL in [10]. For the same molecule, the binding result in test [1] was “no binding (tested: 0.5 µg/ml)”. Also, the Kd came to 4.48 nM in test [2]; 1.31 nM in test [3]; 2.68 nM in [4]; 1.14 nM in test [5]; 0.536 nM in test [6]; 0.779 nM in test [7].

B9: FBE5-C1 (scFv, V domains shown)
VH: EVQLVETRGGVVQPGRSLRLSCAASGFTFSSYGMHWVRQAPGKGLEWVAVISYDGSNKYYADSVKGRFTISRDNSKNTLYLQMNSLRAEDTAVYYCAREGTYYYDSSGYYEGGFDYWGQGTLVTVSS
VL: QSVLTQPPSASGTPGQRVTISCSGSSSNIGSGPVNWYQQLPGTAPKLLIYSDTRRPSGIPDRLSGSKSGTSASLGISGLQSEDEADYYCAAWDDSLNGYAFGSGTKVTVL
B9: in [1], the binding result was “no binding (tested: 0.5 µg/ml)”. Besides, the Kd in [2] was found to be 40.9 nM; in test [5], 24.3 nM; in test [6] it was 4.59 nM; in [7], 1.13 nM.
